Reference: patent US20260185137A1 (University of Texas, published 2026)

Assays:
[1] = target: the molecule itself; assay: 15N-TROSY HSQC NMR (self-association of the RING domain); sample concentration is not printed on the sheet
Protocol: NMR spectroscopy. All NMR experiments were performed in 50 mM Sodium Phosphate (pH 7.5), 150 mM NaCl, 1 mM TCEP, 10% (v/v) D₂O, 0.04% (w/v) NaN₃, and the data collected at 298K on a Bruker Avance 700-MHz spectrometer equipped with a cryoprobe. Backbone assignments were carried out using standard TROSY triple resonance NMR experiments (HNCO, HN(CA)CO, HN(CO)CA, HNCA, HNCACB, and HN(CO)CACB). Protein concentrations for each experiment are shown in the corresponding figures or noted in figure legends. The NMR data were processed using NMRPipe and spectra evaluated using NMRFAM-Sparky.

[2] = target: the molecule itself; assay: sedimentation equilibrium analytical ultracentrifugation, monomer-dimer self-association model
Protocol: Analytical Ultracentrifugation. Sedimentation velocity experiments were performed with a Beckman Optima XL-I analytical ultracentrifuge (Beckman Coulter, Indianapolis, IN) equipped with a 4-hole AnTi-60 rotor and 2-channel centerpiece cells. Samples were in a buffer containing 50 mM Tris (pH 7.5), 150 mM NaCl, and 1 mM TCEP. Sedimentation velocity experiments were carried out at 20° C. and data collection performed in the intensity mode at 280 nm. […] All c(S) distributions were calculated with fitted frictional ratios (f/f₀) and meniscus positions were all fitted with a maximum entropy regularization cutoff of 0.95. Sedimentation equilibrium experiments were carried out using six-channel centerpieces, each chamber containing 110 μL samples. Equilibrium experiments were conducted at 20° C. and collection of data performed in the intensity mode at 280 nm and 230 nm. […] Equilibrium distributions were fitted to a monomer-dimer self-association model.

B1: R1-I77R, RING domain construct of rhesus monkey TRIM5alpha with the I77R mutation (enzyme, UniProt Q0PF16 2-90, looked up)
chain: ASGILLNVKEEVTCPICLELLTEPLSLHCGHSFCQACITANHKKSMLYKEGERSCPVCRISYQPENIQPNRHVANRVEKLREVKLSPEE
notes: range 2-90; Tags were removed by TEV protease
binding result [1]: no binding

B2: R1-WT, monomeric RING domain construct of rhesus monkey TRIM5alpha (enzyme, UniProt Q0PF16 2-90, looked up)
chain: ASGILLNVKEEVTCPICLELLTEPLSLHCGHSFCQACITANHKKSMLYKEGERSCPVCRISYQPENIQPNRHVANIVEKLREVKLSPEE
notes: range 2-90; Expressed with N-terminal 6His-GB1-TEV tags that were removed by TEV protease; also called isolated RING monomer
Kd [2]: ~60 µM
